Results as given in patent US20120121583A1 (Genentech, published 2012).

B1: TW-305chi (antibody, human IgG1, kappa, V domains shown)
VH: QEQLVESGGGLVQPGGSLTLSCKASGFDFSTYYMSWVRQAPGKGLEWIGTVYVRQGTTYYASWLNGRFTISSDNAQNTVDLKMNSLTAADTATYFCAKGGYNYDDAFVIWGPGTLVTVSF
VL: AIEMTQTPFSVSAAVGGTVTINCQASQNIYSNLAWYQQKPGQPPKLLMYTASYLASGVPSRFKGSGSRTEYTLTISGVQCADAATYYCQTAYYNSRPDTVAFGGGTEVVVKR
notes: also called chimeric antibody 305; Antibody 305 (chimeric)
B2: TW-304chi (antibody, human IgG1, kappa, V domains shown)
VH: QSLEESGGDLVKPGASLTLTCKASGFSFSSTYYMCWVRQAPGKGLEWIGCIYVGSSGAPYYASWAKGRFTISKTSSTTVALQMTSLTPADTATYVCTRSVHFGDLWGPGTLVTVSS
VL: DVVMTQTPSPVSAAVGGTVTIKCQASQSIGNDLSWYQQKPGQRPKLLIYSVSTLASGVPSRFKGSGSGTEYSLTISDVQCADAATYYCQCIDYGNNYVGNTFGGGTEVVVKR
notes: also called chimeric antibody 304
B3: TW-301 (antibody, V domains shown)
VH: QSLEESGGGLVKPGASLTLTCTASGFTFNANYWICWVRQAPGKGLEWIACIYGGGNSGAYYASWATGRFTISRTSSTTVTLQMTSLTAADTATYFCARGPISRDLWGPGTLVTVSL
VL: DVVMTQTPASVSEPVGGTVTIKCQASQSIYSSLAWYQQKPGQPPKLLIYDAFDLASGVSSRFTGSGSGTQFTLTISDLECADAATYYCQSTDYGNSWDGNPFGGGTEVVVT
notes: also called Antibody 301; rabbit antibody 301
B4: TW-301chi (antibody, human IgG1, kappa, V domains shown)
VH: B3 VH
VL: DVVMTQTPASVSEPVGGTVTIKCQASQSIYSSLAWYQQKPGQPPKLLIYDAFDLASGVSSRFTGSGSGTQFTLTISDLECADAATYYCQSTDYGNSWDGNPFGGGTEVVVTR
notes: also called chimeric antibody 301

These binders were tested against T1, Human recombinant soluble TWEAK (human, UniProt O43508 99-249) (assay: cell-based or functional assay).
T1 sequence: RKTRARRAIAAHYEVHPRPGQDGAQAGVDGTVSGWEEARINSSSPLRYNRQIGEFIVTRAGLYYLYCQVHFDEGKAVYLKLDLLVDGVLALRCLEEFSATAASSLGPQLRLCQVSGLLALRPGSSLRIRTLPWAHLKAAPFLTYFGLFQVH

Binder | IL-8 Secretion IC50 [ng/mL]
B1 | 104
B2 | 122
B3 | 128
B4 | 121

These binders were tested against T2, Biotinylated TWEAK (Homo sapiens (Human), UniProt O43508 99-249, Biotinylated for capture on the streptavidin sensor; the site or sites of biotinylation are not stated. The active form is a soluble homotrimer; one protomer is given.) (assay: Biacore cross-blocking on immobilised biotinylated TWEAK; binding of antibody 2 after saturation with competitor antibody 1 TW-301chi (row), 100 nM each).
T2 sequence: T1 sequence
Protocol: (§1) Because of the individual biochemical properties of the TWEAK protein another method had to be developed using TWEAK as ligand. Biotinylated TWEAK was immobilized on the streptavidin-coated chip surface and epitope coverage of consecutively injected antibodies (antibody 1) was measured. The aim was to detect the relative binding levels of a secondary antibody (antibody 2) in the presence of an already bound primary antibody. From these relative binding levels a quotient was calculated (Ab2/Ab1, molar ratio given in %, table 7).
(§2) 5 nM of biotinylated TWEAK was immobilized at 20 μl/min for 1 min on a streptavidin coated sensor flow cell. Primary and secondary mAbs were consecutively injected at 10 μl/min for 4 min into the system at 100 nM each until saturation of the respective TWEAK epitopes was achieved. As a reference an SA coated flow cell was used.
(§3) The system was washed with HBS-ET for 20 sec at 30 μl/min followed by two regeneration steps with 1 min at 30 μl/min 6 M GuadHCl and 100 mM HCl. […] The process was repeated by the immobilization of native biotinylated TWEAK protein (feed batch mode) on the same flow cell until the streptavidin sensor surface was completely saturated by biotinylated TWEAK.

Binder | MR % (Ab2/Ab1 molar ratio) [%]
B1 | 9
B2 | 6
B4 | 0

These binders were tested against Mouse soluble TWEAK (mouse) (UniProt O54907) (assay: competition ELISA: antibody pre-incubated with mouse soluble TWEAK 4 ng/ml, binding to coated mouse Fn14:Fc).

Binder | IC50 [ng/mL]
B3 | 4.7
B4 | 6.4

The binders below were run against T3, Biotinylated human soluble TWEAK (amino acids 99-249 of SEQ ID NO: 60) (human, UniProt O43508 99-249, biotinylated (sites not given)) (assay: Biacore SPR, biotinylated TWEAK on SA sensor, antibody 100 nM as analyte, 25 C; t1/2 = ln(2)/(60 x kd)).
T3 construct: Immobilised on the streptavidin sensor in the Biacore half-life assay; also called Human TWEAK; soluble human TWEAK
T3 sequence: T1 sequence
Protocol: A Biacore 2000 instrument was used with a Biacore streptavidin coated sensor mounted into the system. The system buffer HBS-ET (10 mM HEPES pH 7.4, 150 mM NaCl, 1 mM EDTA, 0.05% Tween® 20) was used at a flow rate of 100 μl/min. The sample buffer was the system buffer. Biotinylated human soluble TWEAK (amino acids 99-249 of SEQ ID NO: 60) and biotinylated murine soluble TWEAK (amino acids 81-225 of SEQ ID NO: 61) was immobilized on different flow cells on the SA sensor at 150 RU each. The flow cell FC1 was used as a blank reference cell. Each antibody was injected into the system as an analyte at 100 nM at 100 μl/min for 2 min association time. The dissociation of the immune complexes were monitored for 5 min. The sensor surface was washed with HBS-ET for 10 seconds and regenerated using 2×2 minutes injections with 10 mM glycine pH 2.25. This procedure was done at 25° C. The kinetically rate limiting step of the complex dissociation phase in the interval [240 s-300 s] was taken to calculate the dissociation rate kd [1/s] (Biacore Evaluation Software 4.0). According to the equation t1/2 diss=ln(2)/(60×kd), the half-life of the immunocomplexes in minutes was calculated.

Binder | t/2 diss [min]
B1 | 147
B2 | 37
B4 | 110

What follows are binders tested against T2, Biotinylated TWEAK (assay: Biacore cross-blocking on immobilised biotinylated TWEAK; binding of antibody 2 after saturation with competitor antibody 1 TW-305chi (row), 100 nM each).
Protocol: as §1, §2, §3

Binder | MR % (Ab2/Ab1 molar ratio) [%]
B1 | 0
B2 | 1
B4 | 0

Each binder was assayed against T4, human Flag-tagged soluble TWEAK (amino acids 106-249) (human, UniProt O43508 106-249) (assay: competition ELISA: antibody pre-incubated with human Flag-TWEAK 2.5 ng/ml, binding to coated human Fn14:Fc).
T4 construct: N-terminal placement here is only an order of listing; not shown: Flag tag
T4 sequence: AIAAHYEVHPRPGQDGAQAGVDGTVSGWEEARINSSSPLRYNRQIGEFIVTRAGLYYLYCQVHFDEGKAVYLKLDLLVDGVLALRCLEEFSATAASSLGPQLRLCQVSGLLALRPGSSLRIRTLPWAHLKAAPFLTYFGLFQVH
Protocol: 96-well Maxisorp® plates (Nunc) were coated with 100 μl 1 μg/ml human Fn14:Fc (extracellular domain of human Fn14 (amino acids 1-75) fused to Fc portion of human IgG1) in PBS per well for 1.5 h at room temperature and blocked with a solution of 5% FBS in PBS for 30 minutes at room temperature under shaking. […] Wells were filled with 100 μl of anti-FLAG-HRP detection antibody, diluted 1:5000 in blocking buffer, and incubated for 1 h at room temperature. After four more wash steps, the signal was developed by addition of 100 μl 3,3,5,5-Tetramethylbenzidine (TMB) solution for approximately ten minutes. The reaction was stopped by adding 100 μl of 1 N HCl, and absorbance measured at 450 nm (reference wavelength 620 nm).

Binder | IC50 [ng/mL]
B1 | 2.6
B2 | 2.6
B3 | 3.4
B4 | 2.8

Each binder was assayed against T2, Biotinylated TWEAK (assay: Biacore cross-blocking on immobilised biotinylated TWEAK; binding of antibody 2 after saturation with competitor antibody 1 TW-304chi (row), 100 nM each).
Protocol: as §1, §2, §3

Binder | MR % (Ab2/Ab1 molar ratio) [%]
B1 | 3
B2 | 0
B4 | 0
